From patent publication US20220202905A1, “COMPOSITION FOR PREVENTING OR TREATING NEUROTROPHIC KERATITIS WHICH CONTAINS PACAP PEPTIDE OR STABILIZED PACAP PEPTIDE” (SENJU PHARMACEUTICAL CO., LTD., priority 2019, published 2022)
Values belong to the molecule of their own block, whether it stands above or below them. Square brackets hold non-standard residues; d marks the D form. Peptide text beside a SMILES is read from it. Ala(1H-tetrazol-5-yl) = N[C@@H](Cc1nnn[nH]1)C(=O)O

Key:
[1] = Peptide stability test, Tris buffer (pH 7.0), 60° C. storage, HPLC remaining rate; format: physicochemical; conditions: Table 7; 100 μM in Tris buffer pH 7.0
How it was run: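 Peptides at 100 μM in Tris buffer (pH 7.0) stored 1 or 2 weeks at 60° C.; unstored sample kept at −30° C. as initial reference. Remaining peptide quantified by reversed-phase HPLC at 220 nm (formic acid/acetonitrile gradient, 40° C. column), as water-corrected remaining rate.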

[2] = biological target: T1, PAC1R (Homo sapiens, UniProt P41586); test: cAMP assay in PAC1R high-expressing CHO-K1 cell line; format: cell-based; conditions: Table 12; cAMP inducing effect, CHO-K1 PAC1R high-expressing cells
T1 construct: host or cells: CHO-K1
T1 sequence (P41586 21-468): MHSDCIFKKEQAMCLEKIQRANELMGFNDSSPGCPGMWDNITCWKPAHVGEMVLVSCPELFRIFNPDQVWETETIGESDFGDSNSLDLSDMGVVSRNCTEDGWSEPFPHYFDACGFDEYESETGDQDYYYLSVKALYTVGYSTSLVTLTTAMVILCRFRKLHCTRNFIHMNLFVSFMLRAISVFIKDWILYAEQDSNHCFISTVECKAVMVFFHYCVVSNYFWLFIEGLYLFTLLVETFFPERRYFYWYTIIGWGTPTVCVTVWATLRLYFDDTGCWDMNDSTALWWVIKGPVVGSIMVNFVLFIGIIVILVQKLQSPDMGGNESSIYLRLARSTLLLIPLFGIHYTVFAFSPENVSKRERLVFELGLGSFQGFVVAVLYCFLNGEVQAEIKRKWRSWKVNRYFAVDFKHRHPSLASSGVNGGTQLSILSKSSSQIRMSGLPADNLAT
Experimental: The cells were cultured for 18 to 24 hours at 37° C. in a 5% C02 incubator, adhering the cells to the plate. […] A 5-fold dilution series was then prepared with the same Cell assay buffer and used in an assay. The cAMP assay was carried out using a Hit Hunter cAMP Assay for Biologics kit (product of DiscoveRx, Cat. No. 90-0075LM25), according to the included kit instructions. […] Next, the culture medium was removed from the CHO-K1 cell culture plate, washing was performed with PBS, and the peptide-cAMP antibody liquid mixtures were added to the cells and incubated for 30 minutes under a 5% CO2 atmosphere at 37° C. A working detection solution was then added and the culture plate was shielded from light with aluminum foil and incubated at 25° C. for 1 hour. After incubation, Solution A was added and the culture plate was shielded from light with aluminum foil and then incubated at 25° C. for 3 hours. […] The obtained value for the Relative Luminescence Unit (RLU) was analyzed with GraphPad Prism Ver 6.05 (product of Graph Pad) and the EC50 value was calculated for each peptide. […] FIG. 2 and Table 11. […] A 5-fold dilution series was then prepared with the same Cell assay buffer and used in an assay. […] A 5-fold dilution series was then prepared with the same Cell assay buffer and used in an assay.

[3] = test system: rat trigeminal nerve cells; test: Axon elongation effect on cultured rat trigeminal nerve cells; format: cell-based; conditions: 1 μM peptide, 24 hours; N=8; Dunnett's test vs control P<0.001; FIG. 5
Experimental: Rats (Sic: Sprague-Dawley, 17-day-old, including female and male) purchased from Japan SLC, Inc. were euthanized by carbon dioxide gas inhalation and the trigeminal ganglion was harvested. The harvested trigeminal ganglion was washed with Hanks' balanced salt solution (HBSS) and then treated with collagenase A (Roche) for 30 minutes at 37° C. A neuron dispersion (Wako) was then used according to protocol for dispersion of the cells. Debris removal solution (Miltenyi biotec) and Myelin removal beads II (Miltenyi biotec) were used according to protocol to remove the debris and myelin. After suspending the isolated trigeminal nerve cells in culture solution, they were seeded onto a polylysine/laminin-coated 8-well chamber slide (Corning) at 2.5×10^3 cells/well. The culture solution used was Neurobasal-A containing B27 supplement (final concentration: 2%) and GlutaMAX (final concentration: 2 mM) and penicillin/streptomycin (final concentration: 1%). The culturing conditions were a carbon dioxide concentration of 5%, an air concentration of 95%, a humidity of 100% and a temperature of 37° C. […] The control was replaced with peptide-free culture solution. Culture medium replacement was followed by further culturing for 24 hours.
The culture medium was replaced with peptide-containing culture solution, and the rat trigeminal nerve cells cultured for 24 hours were immersed in a 2% paraformaldehyde solution at room temperature for 20 minutes for fixing. The cells were washed with PBS, and then 2% bovine serum albumin containing 0.1% TritonX-100 was added and reaction was conducted for 30 minutes. After washing with PBS, it was reacted with phospho-neurofilament H antibody (Merck, MAB1592-C) specifically recognizing neurofilaments forming the neuron bodies and neurites, for 1 hour at room temperature. After reaction for 1 hour, a fluorescent-labeled secondary antibody (Invitrogen Corp., #A-11031) was reacted at room temperature for 1 hour for fluorescent staining of the sample, and the stained cells were observed under a fluorescent microscope. The stained cell image was captured as an image from the fluorescent microscope and loaded into a computer.
In order to evaluate the extent of neurite formation by the rat trigeminal nerve cells, cells with neurites having lengths of at least twice the cell body diameter in the stained cell image in the computer were counted as neurite-forming cells, and the percentage (%) of this number of cells over the total cell count was calculated (Otori Y. Wei J Y, Barnstable C J. Invest. Ophthalmol Vis Sci (1998) 39, 972-981). The significant difference with respect to the control was determined by Dunnett's test (P<0.001).

[4] = biological target: T2, PAC1 receptor (UniProt P41586 21-468, limits assumed); test: cell-based or functional assay
T2 sequence (looked up): T1 sequence (P41586 21-468)

[5] = biological target: T3, VPAC1 receptor (UniProt P32241 31-457, limits assumed); test: cell-based or functional assay
T3 sequence (looked up): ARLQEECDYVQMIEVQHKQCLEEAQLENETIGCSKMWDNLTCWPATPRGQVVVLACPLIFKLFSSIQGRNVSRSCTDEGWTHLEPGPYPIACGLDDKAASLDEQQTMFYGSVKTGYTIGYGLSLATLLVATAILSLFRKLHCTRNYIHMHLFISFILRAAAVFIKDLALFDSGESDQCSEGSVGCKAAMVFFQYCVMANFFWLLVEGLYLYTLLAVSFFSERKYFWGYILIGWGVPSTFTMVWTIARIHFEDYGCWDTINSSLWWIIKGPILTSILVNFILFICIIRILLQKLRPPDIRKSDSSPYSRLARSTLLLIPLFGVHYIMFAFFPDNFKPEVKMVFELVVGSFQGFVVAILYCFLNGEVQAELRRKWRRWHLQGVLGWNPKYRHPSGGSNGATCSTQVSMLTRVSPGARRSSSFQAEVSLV

B1: Peptide 6 (peptide)
peptide: HSXGIFTXSYSRYRKQXAVKKYLAAVL
modifications: Tz (aspartic acid with carboxyl group replaced by tetrazole) at positions 3 and 8; norleucine at position 17; C-terminal amide (NH2)
EC50 (PAC1R), cAMP inducing effect [4]: 0.079 nM
EC50 (VPAC1R), cAMP inducing effect [5]: 0.093 nM

B3: Peptide 7 (peptide)
peptide: HSXGIFTXSYSRYRKQLAVKKYLAAVL
modifications: Tz (aspartic acid with carboxyl group replaced by tetrazole) at positions 3 and 8; C-terminal amide (NH2)
EC50 (PAC1R), cAMP inducing effect [4]: 0.112 nM
EC50 (VPAC1R), cAMP inducing effect [5]: 0.114 nM

B4: Peptide 8 (peptide)
peptide: HSXGIFTXSYSRYRKQXAVKKYLAAVL
modifications: N-terminal acetyl (Ac-); Tz (aspartic acid with carboxyl group replaced by tetrazole) at positions 3 and 8; norleucine at position 17; C-terminal amide (NH2)
EC50 (PAC1R), cAMP inducing effect [4]: 0.072 nM
EC50 (VPAC1R), cAMP inducing effect [5]: 0.046 nM

More lines, main results first:

remaining rate after correction for water, 60° C., 1 week preservation [1]: 96.7%
remaining rate after correction for water, 60° C., 2 weeks preservation [1]: 90.6%
EC50 [2]: 0.061 nM
Molecule: CC[C@H](C)[C@H](NC(=O)CNC(=O)[C@H](Cc1nnn[nH]1)NC(=O)[C@H](CO)NC(=O)[C@H](Cc1c[nH]cn1)NC(C)=O)C(=O)N[C@@H](Cc1ccccc1)C(=O)N[C@H](C(=O)N[C@@H](Cc1nnn[nH]1)C(=O)N[C@@H](CO)C(=O)N[C@@H](Cc1ccc(O)cc1)C(=O)N[C@@H](CO)C(=O)N[C@@H](CCCNC(=N)N)C(=O)N[C@@H](Cc1ccc(O)cc1)C(=O)N[C@@H](CCCNC(=N)N)C(=O)N[C@@H](CCCCN)C(=O)N[C@@H](CCC(N)=O)C(=O)N[C@@H](C)C(=O)N[C@@H](C)C(=O)N[C@H](C(=O)N[C@@H](CCCCN)C(=O)N[C@@H](CCCCN)C(=O)N[C@@H](Cc1ccc(O)cc1)C(=O)N[C@@H](CC(C)C)C(=O)N[C@@H](C)C(=O)N[C@@H](C)C(=O)N[C@H](C(=O)N[C@@H](CC(C)C)C(N)=O)C(C)C)C(C)C)[C@@H](C)O [Peptide 18] (Ac-HS[Ala(1H-tetrazol-5-yl)]GIFT[Ala(1H-tetrazol-5-yl)]SYSRYRKQAAVKKYLAAVL-NH2)
axon elongation (percentage of neurite-forming cells) [3]: exhibited axon elongation-promoting effects

EC50 (PAC1R), cAMP inducing effect [4]: 0.063 nM
EC50 (VPAC1R), cAMP inducing effect [5]: 0.043 nM
B2: Peptide 9 (peptide)
peptide: HSXGIFTXSYSRYRKQLAVKKYLAAVL
modifications: N-terminal acetyl (Ac-); Tz (aspartic acid with carboxyl group replaced by tetrazole) at positions 3 and 8; C-terminal amide (NH2)
